For this series, the system named is Escherichia coli TOP10. The experiment in a line: shrunken log2 fold change of peptide-encoding DNA abundance (4.5 h post-induction vs induction); higher = less antimicrobial activity (less host growth inhibition). The following applies: time post-induction: 4.5 h; library: site-saturation at positions 5, 18, 19, 20.
RRIRKRPPRLPRPRPRPQYGPRP: the “shrunken log2 fold change” value is -0.0781.

With RRIRYRPPRLPRPRPRPRFFPRP, the “shrunken log2 fold change” value was -0.0565.

As to RRIRNRPPRLPRPRPRPRWEPRP, the “shrunken log2 fold change” value was 0.291.

Consider RRIRVRPPRLPRPRPRPHCFPRP, for which the “shrunken log2 fold change” value is -0.147.

On to RRIRYRPPRLPRPRPRPVVLPRP, for which the “shrunken log2 fold change” value is -0.397.

RRIRCRPPRLPRPRPRPGYFPRP: the “shrunken log2 fold change” value was -0.394.

As for RRIRLRPPRLPRPRPRPAWPPRP, the “shrunken log2 fold change” value is 0.42.

Regarding RRIRFRPPRLPRPRPRPDINPRP, the “shrunken log2 fold change” value was -0.302.

Consider RRIRFRPPRLPRPRPRPTEEPRP, for which the “shrunken log2 fold change” value was determined as 0.0249.

As for RRIRNRPPRLPRPRPRPAEPPRP, the “shrunken log2 fold change” value was -0.00965.

On to RRIRQRPPRLPRPRPRPANHPRP, for which the “shrunken log2 fold change” value was -0.728.

Take RRIRPRPPRLPRPRPRPLLWPRP: the “shrunken log2 fold change” value was 0.0186.

In the case of RRIRARPPRLPRPRPRPPIIPRP, the “shrunken log2 fold change” value is -0.308.

As for RRIRTRPPRLPRPRPRPNTYPRP, the “shrunken log2 fold change” value was -0.614.

As for RRIRVRPPRLPRPRPRPISIPRP, the “shrunken log2 fold change” value was -0.133.

With RRIRVRPPRLPRPRPRPRYDPRP, the “shrunken log2 fold change” value was -0.0252.

With RRIRCRPPRLPRPRPRPWVTPRP, the “shrunken log2 fold change” value is -0.652.

In the case of RRIRMRPPRLPRPRPRPNCDPRP, the “shrunken log2 fold change” value is 0.194.

On to RRIRIRPPRLPRPRPRPNRWPRP, for which the “shrunken log2 fold change” value is -0.0394.

For RRIRARPPRLPRPRPRPMPGPRP, the “shrunken log2 fold change” value is -0.0941.

In the case of RRIRVRPPRLPRPRPRPHEHPRP, the “shrunken log2 fold change” value was -0.0873.

Consider RRIRCRPPRLPRPRPRPKPGPRP, for which the “shrunken log2 fold change” value turned out to be 0.503.

On to RRIRIRPPRLPRPRPRPCHDPRP, for which the “shrunken log2 fold change” value was -0.223.

For the sequence RRIRIRPPRLPRPRPRPQVPPRP, the “shrunken log2 fold change” value worked out at 0.00863.

RRIRQRPPRLPRPRPRPSLYPRP: the “shrunken log2 fold change” value was -0.233.

Regarding RRIRFRPPRLPRPRPRPSDAPRP, the “shrunken log2 fold change” value is -0.00375.

On to RRIRGRPPRLPRPRPRPCRRPRP, for which the “shrunken log2 fold change” value came out at 0.117.

RRIRLRPPRLPRPRPRPDWNPRP: the “shrunken log2 fold change” value was -0.689.

In the case of RRIRGRPPRLPRPRPRPRTKPRP, the “shrunken log2 fold change” value stood at 0.942.

In the case of RRIRYRPPRLPRPRPRPDCRPRP, the “shrunken log2 fold change” value is -0.363.

As to RRIRGRPPRLPRPRPRPFLFPRP, the “shrunken log2 fold change” value worked out at 0.39.

In the case of RRIRLRPPRLPRPRPRPPTDPRP, the “shrunken log2 fold change” value turned out to be 0.127.

For RRIRWRPPRLPRPRPRPWNCPRP, the “shrunken log2 fold change” value is -0.116.

RRIRGRPPRLPRPRPRPEAKPRP: the “shrunken log2 fold change” value is 1.76.

RRIRTRPPRLPRPRPRPWKRPRP: the “shrunken log2 fold change” value amounted to 0.0299.

For the sequence RRIRNRPPRLPRPRPRPHDRPRP, the “shrunken log2 fold change” value was -0.146.

For RRIRIRPPRLPRPRPRPMKIPRP, the “shrunken log2 fold change” value was -0.167.

Take RRIRGRPPRLPRPRPRPRIEPRP: the “shrunken log2 fold change” value was 0.249.

In the case of RRIRQRPPRLPRPRPRPTYRPRP, the “shrunken log2 fold change” value came out at 0.06.

Turning to RRIRRRPPRLPRPRPRPEDMPRP, the “shrunken log2 fold change” value was determined as 0.296.

Take RRIRCRPPRLPRPRPRPAYFPRP: the “shrunken log2 fold change” value was -0.361.

In the case of RRIRYRPPRLPRPRPRPAAPPRP, the “shrunken log2 fold change” value came to 0.726.

Take RRIRDRPPRLPRPRPRPHSFPRP: the “shrunken log2 fold change” value was 0.0961.

As to RRIRLRPPRLPRPRPRPYLNPRP, the “shrunken log2 fold change” value is -1.13.

For RRIRVRPPRLPRPRPRPTTYPRP, the “shrunken log2 fold change” value was -0.465.

As to RRIRTRPPRLPRPRPRPYCHPRP, the “shrunken log2 fold change” value is -0.213.

Regarding RRIRMRPPRLPRPRPRPEMYPRP, the “shrunken log2 fold change” value was determined as 0.216.

For RRIRFRPPRLPRPRPRPHCLPRP, the “shrunken log2 fold change” value is -0.377.

With RRIRQRPPRLPRPRPRPSRLPRP, the “shrunken log2 fold change” value stood at 0.101.

With RRIRFRPPRLPRPRPRPHNRPRP, the “shrunken log2 fold change” value was 0.0584.

For the sequence RRIRTRPPRLPRPRPRPHVIPRP, the “shrunken log2 fold change” value was -0.192.

For the sequence RRIRFRPPRLPRPRPRPNPPPRP, the “shrunken log2 fold change” value was 0.544.

Regarding RRIRPRPPRLPRPRPRPLRKPRP, the “shrunken log2 fold change” value stood at 0.319.

As for RRIRPRPPRLPRPRPRPQVKPRP, the “shrunken log2 fold change” value amounted to 0.205.

RRIRVRPPRLPRPRPRPDCIPRP: the “shrunken log2 fold change” value was -0.161.

For the sequence RRIRRRPPRLPRPRPRPCPWPRP, the “shrunken log2 fold change” value was -0.0433.

As for RRIRMRPPRLPRPRPRPEHIPRP, the “shrunken log2 fold change” value is -0.0225.

In the case of RRIRKRPPRLPRPRPRPNNQPRP, the “shrunken log2 fold change” value is -0.219.

As to RRIRYRPPRLPRPRPRPEINPRP, the “shrunken log2 fold change” value was found to be 0.0373.

For the sequence RRIRMRPPRLPRPRPRPSYRPRP, the “shrunken log2 fold change” value was -0.0836.

For RRIRARPPRLPRPRPRPGFEPRP, the “shrunken log2 fold change” value was 0.735.

RRIRYRPPRLPRPRPRPYAVPRP: the “shrunken log2 fold change” value was -0.85.

Regarding RRIRSRPPRLPRPRPRPRDDPRP, the “shrunken log2 fold change” value came to 0.0905.

With RRIRNRPPRLPRPRPRPIWTPRP, the “shrunken log2 fold change” value was -0.115.

For RRIRSRPPRLPRPRPRPFLQPRP, the “shrunken log2 fold change” value was -0.267.

Turning to RRIRMRPPRLPRPRPRPWTEPRP, the “shrunken log2 fold change” value was 0.0475.

Take RRIRSRPPRLPRPRPRPTERPRP: the “shrunken log2 fold change” value was determined as 0.142.

Take RRIRIRPPRLPRPRPRPSYGPRP: the “shrunken log2 fold change” value is -0.53.

In the case of RRIRLRPPRLPRPRPRPFLEPRP, the “shrunken log2 fold change” value is -0.106.

For the sequence RRIRKRPPRLPRPRPRPTWKPRP, the “shrunken log2 fold change” value is 0.107.

Regarding RRIRCRPPRLPRPRPRPNQAPRP, the “shrunken log2 fold change” value was -0.146.

As for RRIRVRPPRLPRPRPRPLWIPRP, the “shrunken log2 fold change” value is -0.189.

Regarding RRIRSRPPRLPRPRPRPMKNPRP, the “shrunken log2 fold change” value was -0.145.

Turning to RRIRGRPPRLPRPRPRPLMVPRP, the “shrunken log2 fold change” value worked out at 0.885.

With RRIRGRPPRLPRPRPRPEQPPRP, the “shrunken log2 fold change” value amounted to 1.68.

As to RRIRMRPPRLPRPRPRPMPYPRP, the “shrunken log2 fold change” value turned out to be 0.018.

Consider RRIRSRPPRLPRPRPRPLKDPRP, for which the “shrunken log2 fold change” value is -0.484.

Regarding RRIRERPPRLPRPRPRPVLLPRP, the “shrunken log2 fold change” value is -0.388.

As for RRIRDRPPRLPRPRPRPCHCPRP, the “shrunken log2 fold change” value is -0.158.

In the case of RRIRARPPRLPRPRPRPASTPRP, the “shrunken log2 fold change” value amounted to 0.318.

As to RRIRTRPPRLPRPRPRPIGYPRP, the “shrunken log2 fold change” value was -0.0183.

With RRIRIRPPRLPRPRPRPHETPRP, the “shrunken log2 fold change” value is 0.0188.

For the sequence RRIRYRPPRLPRPRPRPMISPRP, the “shrunken log2 fold change” value is -0.126.

As for RRIRVRPPRLPRPRPRPLVYPRP, the “shrunken log2 fold change” value is -0.193.

For the sequence RRIRTRPPRLPRPRPRPLIGPRP, the “shrunken log2 fold change” value was -0.413.

With RRIRNRPPRLPRPRPRPCKNPRP, the “shrunken log2 fold change” value is -0.0376.

Regarding RRIRFRPPRLPRPRPRPQDDPRP, the “shrunken log2 fold change” value is -0.493.

Take RRIRWRPPRLPRPRPRPWLCPRP: the “shrunken log2 fold change” value was -0.0206.

As to RRIRNRPPRLPRPRPRPCQWPRP, the “shrunken log2 fold change” value amounted to 0.0401.

Regarding RRIRQRPPRLPRPRPRPSWTPRP, the “shrunken log2 fold change” value is -0.15.

On to RRIRKRPPRLPRPRPRPGTRPRP, for which the “shrunken log2 fold change” value was found to be 0.165.

As to RRIRFRPPRLPRPRPRPGHFPRP, the “shrunken log2 fold change” value is -0.24.

For RRIRWRPPRLPRPRPRPAQAPRP, the “shrunken log2 fold change” value was found to be 0.237.

With RRIRTRPPRLPRPRPRPMFRPRP, the “shrunken log2 fold change” value is -0.193.

On to RRIRIRPPRLPRPRPRPPTAPRP, for which the “shrunken log2 fold change” value is 0.335.

For the sequence RRIRRRPPRLPRPRPRPQRYPRP, the “shrunken log2 fold change” value was -0.15.

On to RRIRERPPRLPRPRPRPWCWPRP, for which the “shrunken log2 fold change” value came out at 0.315.

In the case of RRIRTRPPRLPRPRPRPVEMPRP, the “shrunken log2 fold change” value was -0.162.

As for RRIRTRPPRLPRPRPRPEYEPRP, the “shrunken log2 fold change” value is -0.0445.

Take RRIRMRPPRLPRPRPRPSIFPRP: the “shrunken log2 fold change” value was determined as 0.00177.

Regarding RRIRTRPPRLPRPRPRPEGFPRP, the “shrunken log2 fold change” value is -0.041.

As for RRIRWRPPRLPRPRPRPCWQPRP, the “shrunken log2 fold change” value is -0.0167.

On to RRIRERPPRLPRPRPRPLNHPRP, for which the “shrunken log2 fold change” value was -0.443.

For RRIRFRPPRLPRPRPRPLWAPRP, the “shrunken log2 fold change” value is -0.151.

Regarding RRIRQRPPRLPRPRPRPQRKPRP, the “shrunken log2 fold change” value is -0.058.

On to RRIRMRPPRLPRPRPRPFTRPRP, for which the “shrunken log2 fold change” value is -0.0636.

Regarding RRIRTRPPRLPRPRPRPHQPPRP, the “shrunken log2 fold change” value is -0.0196.

RRIRMRPPRLPRPRPRPYPCPRP: the “shrunken log2 fold change” value worked out at 0.0288.

On to RRIRQRPPRLPRPRPRPMVDPRP, for which the “shrunken log2 fold change” value was -0.00399.

On to RRIRFRPPRLPRPRPRPKMFPRP, for which the “shrunken log2 fold change” value was -0.323.

RRIRMRPPRLPRPRPRPSRTPRP: the “shrunken log2 fold change” value is 0.715.

As to RRIRHRPPRLPRPRPRPFDKPRP, the “shrunken log2 fold change” value was -0.118.

RRIRERPPRLPRPRPRPGAYPRP: the “shrunken log2 fold change” value was -0.243.

For RRIRCRPPRLPRPRPRPIAGPRP, the “shrunken log2 fold change” value was found to be 0.195.

As for RRIRLRPPRLPRPRPRPGHLPRP, the “shrunken log2 fold change” value is 0.00551.

On to RRIRWRPPRLPRPRPRPDSNPRP, for which the “shrunken log2 fold change” value is -0.189.

For the sequence RRIRIRPPRLPRPRPRPQQWPRP, the “shrunken log2 fold change” value was -0.421.

In the case of RRIRCRPPRLPRPRPRPGEAPRP, the “shrunken log2 fold change” value was 0.449.

As for RRIRPRPPRLPRPRPRPMVMPRP, the “shrunken log2 fold change” value is -0.0504.

Turning to RRIRYRPPRLPRPRPRPSMQPRP, the “shrunken log2 fold change” value was -0.288.

Consider RRIRVRPPRLPRPRPRPAQKPRP, for which the “shrunken log2 fold change” value stood at 0.135.

Turning to RRIRSRPPRLPRPRPRPHLPPRP, the “shrunken log2 fold change” value was -0.27.

As to RRIRYRPPRLPRPRPRPPSYPRP, the “shrunken log2 fold change” value is -0.156.

Turning to RRIRARPPRLPRPRPRPNFTPRP, the “shrunken log2 fold change” value turned out to be 0.134.

In the case of RRIRNRPPRLPRPRPRPILSPRP, the “shrunken log2 fold change” value is -0.00144.

The record behind these values is the supplement of paper PMC9112550, “Optimization of the antimicrobial peptide Bac7 by deep mutational scanning” (BMC Biology, 2022).
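Also: peptides expressed intracellularly from a pBAD plasmid library in pooled LB shake-flask culture, induced with 0.3% L-arabinose, DNA abundance read by NGS, three biological replicates, DESeq2 with apeglm shrinkage.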
